Biological target: T1, E. faecalis RNase J2 (Enterococcus faecalis (strain OG1RF), UniProt Q836D0 1-562)
T1 construct: RNase J2 of Enterococcus faecalis, product of rnjB (ef1185); 1689 bp fragment PCR amplified from the OG1RF genome with primers 1185NdeF (begins at the ATG) and 1185XhoR (ends at the stop codon), in vector pQE30; recombinant protein M.W. 64.2 kDa; Vector pQE30; also called wild-type RNase J2; rnjB gene product; source: E. coli BL21, purified (Ni-NTA agarose)
T1 sequence (looked up): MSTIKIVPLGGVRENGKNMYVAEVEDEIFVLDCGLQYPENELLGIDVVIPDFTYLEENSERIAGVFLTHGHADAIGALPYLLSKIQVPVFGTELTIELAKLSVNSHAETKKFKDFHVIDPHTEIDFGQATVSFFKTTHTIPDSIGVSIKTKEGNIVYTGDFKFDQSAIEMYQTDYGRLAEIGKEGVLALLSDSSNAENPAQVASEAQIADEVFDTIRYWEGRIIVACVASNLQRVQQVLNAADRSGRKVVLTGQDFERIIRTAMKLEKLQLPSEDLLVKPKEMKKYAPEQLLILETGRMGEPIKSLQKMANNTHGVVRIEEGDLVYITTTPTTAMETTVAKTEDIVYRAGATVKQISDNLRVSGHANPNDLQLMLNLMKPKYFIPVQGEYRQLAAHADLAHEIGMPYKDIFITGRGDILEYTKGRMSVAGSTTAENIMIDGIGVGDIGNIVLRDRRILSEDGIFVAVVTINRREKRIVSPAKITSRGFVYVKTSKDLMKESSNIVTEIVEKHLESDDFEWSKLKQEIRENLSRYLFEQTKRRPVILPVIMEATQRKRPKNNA
Experiment: SPR; Biacore T100; E. faecalis RNase J1 immobilized on a CM5 sensor surface; J2 proteins 400 to 50 nM in duplicate; fitted to the 1:1 binding model
Conditions: both partners purified

B1: E. faecalis RNase J1 (enzyme)
chain: not shown
notes: recombinant protein M.W. 62.6 kDa; also called rnjA gene product; ef2924; source: E. coli BL21, purified (Ni-NTA agarose)
  Kd: 74 nM
